# Article PMC3773400, “Intracellular Secretory Leukoprotease Inhibitor Modulates Inositol 1,4,5-Triphosphate Generation and Exerts an Anti-Inflammatory Effect on Neutrophils of Individuals with Cystic Fibrosis and Chronic Obstructive Pulmonary Disease” (BioMed Research International, 2013)
# Experiments:
# [1] = biological target: calpain 2 (UniProt P17655 20-700); assay: enzyme inhibition kinetics (Calpain-Glo protease assay); cleavage of the calpain substrate Suc-LLVY-aminoluciferin, luminescence; calpastatin 0-80 nM, rhSLPI 0-640 nM; Ki by global curve fit in GraphPad Prism 4.03; conditions: both partners purified
# [2] = biological target: calpain 1 (UniProt P07384 1-714); assay: as above; conditions: both partners purified
# calpain 1, sequence (P07384 2-714, chain 1 of 2): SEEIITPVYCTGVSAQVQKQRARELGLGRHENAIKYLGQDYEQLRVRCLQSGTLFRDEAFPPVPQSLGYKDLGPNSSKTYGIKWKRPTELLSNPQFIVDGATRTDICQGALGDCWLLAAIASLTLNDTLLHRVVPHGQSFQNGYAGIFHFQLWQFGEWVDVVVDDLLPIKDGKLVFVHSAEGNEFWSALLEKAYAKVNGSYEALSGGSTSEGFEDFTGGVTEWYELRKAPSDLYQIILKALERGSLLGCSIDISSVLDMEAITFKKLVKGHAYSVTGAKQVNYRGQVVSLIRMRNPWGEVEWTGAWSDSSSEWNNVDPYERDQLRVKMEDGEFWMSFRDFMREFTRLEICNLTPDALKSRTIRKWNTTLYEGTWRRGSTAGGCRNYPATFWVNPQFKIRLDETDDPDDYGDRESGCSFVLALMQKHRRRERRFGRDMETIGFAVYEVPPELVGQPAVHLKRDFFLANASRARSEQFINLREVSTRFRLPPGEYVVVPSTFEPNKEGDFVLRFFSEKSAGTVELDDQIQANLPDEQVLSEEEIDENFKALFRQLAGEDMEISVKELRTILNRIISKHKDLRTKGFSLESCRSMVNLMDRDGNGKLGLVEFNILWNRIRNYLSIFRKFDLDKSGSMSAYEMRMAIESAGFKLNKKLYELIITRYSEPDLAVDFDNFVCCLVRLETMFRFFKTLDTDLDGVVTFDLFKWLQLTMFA
# calpain 1, sequence (P04632 whole entry, chain 2 of 2, further chain): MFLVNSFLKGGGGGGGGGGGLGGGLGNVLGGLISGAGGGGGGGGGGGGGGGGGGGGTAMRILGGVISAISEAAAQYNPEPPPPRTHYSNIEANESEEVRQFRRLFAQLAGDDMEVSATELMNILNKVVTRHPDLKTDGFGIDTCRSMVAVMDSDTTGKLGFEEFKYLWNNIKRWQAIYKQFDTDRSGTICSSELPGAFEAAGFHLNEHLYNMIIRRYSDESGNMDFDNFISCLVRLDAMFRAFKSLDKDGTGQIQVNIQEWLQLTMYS
binder,measurement,setting,value
"calpastatin (natural protein, Paper names only 'calpastatin (endogenous calpain inhibitor)'. Supplier, species, isoform and limits are not stated. Full-length human canonical form is assumed; a commercial single inhibitory domain) MNPTETKAIPVSQQMEGPHLPNKKKHKKQAVKTEPEKKSQSTKLSVVHEKKSQEGKPKEHTEPKSLPKQASDTGSNDAHNKKAVSRSAEQQPSEKSTEPKTKPQDMISAGGESVAGITAISGKPGDKKKEKKSLTPAVPVESKPDKPSGKSGMDAALDDLIDTLGGPEETEEENTTYTGPEVSDPMSSTYIEELGKREVTIPPKYRELLAKKEGITGPPADSSKPIGPDDAIDALSSDFTCGSPTAAGKKTEKEESTEVLKAQSAGTVRSAAPPQEKKRKVEKDTMSDQALEALSASLGTRQAEPELDLRSIKEVDEAKAKEEKLEKCGEDDETIPSEYRLKPATDKDGKPLLPEPEEKPKPRSESELIDELSEDFDRSECKEKPSKPTEKTEESKAAAPAPVSEAVCRTSMCSIQSAPPEPATLKGTVPDDAVEALADSLGKKEADPEDGKPVMDKVKEKAKEEDREKLGEKEETIPPDYRLEEVKDKDGKPLLPKESKEQLPPMSEDFLLDALSEDFSGPQNASSLKFEDAKLAAAISEVVSQTPASTTQAGAPPRDTSQSDKDLDDALDKLSDSLGQRQPDPDENKPMEDKVKEKAKAEHRDKLGERDDTIPPEYRHLLDDNGQDKPVKPPTKKSEDSKKPADDQDPIDALSGDLDSCPSTTETSQNTAKDKCKKAASSSKAPKNGGKAKDSAKTTEETSKPKDD",Ki,[1],1.55 nM
same,Ki,[2],5.55 nM
